In patent publication US20230227406:

Molecular target: PTEN (substrate in the in vitro ubiquitination reaction) (UniProt P60484)
Sequence (P60484 whole entry): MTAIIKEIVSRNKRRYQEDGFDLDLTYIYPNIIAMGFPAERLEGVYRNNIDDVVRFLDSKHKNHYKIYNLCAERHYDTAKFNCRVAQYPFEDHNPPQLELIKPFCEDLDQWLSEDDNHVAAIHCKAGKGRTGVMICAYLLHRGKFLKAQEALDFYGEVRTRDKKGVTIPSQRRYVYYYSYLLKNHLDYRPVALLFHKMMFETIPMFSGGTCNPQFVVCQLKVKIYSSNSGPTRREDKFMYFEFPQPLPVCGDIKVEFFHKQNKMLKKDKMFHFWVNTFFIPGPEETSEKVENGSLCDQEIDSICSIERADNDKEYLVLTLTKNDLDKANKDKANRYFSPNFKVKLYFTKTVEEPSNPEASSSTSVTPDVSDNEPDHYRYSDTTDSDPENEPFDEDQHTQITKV

Question: With “WWP1 ligase (recombinant, Ubiquigent #63-0034-025)” as the substance, how does the “in vitro ubiquitination reaction, TMT LC-MS/MS of ubiquitin sites on PTEN” value read?
Answer: Its value is “Specific ubiquitin sites on PTEN demonstrate greater occupancy (e.g., K237 and K342) when K27-only ubiquitin is used in the reaction vs wild type ubiquitin”.

Question: And the “in vitro ubiquitination reaction, western blot using an anti-ubiquitin antibody” value?
Answer: The value was “in the presence of K27 only ubiquitin, PTEN substrate ubiquitin is preferred. PTEN is readily ubiquitinated with non-chain forming ubiquitin”.
